Patent US20150140002A1, “USE OF A PCSK9 INHIBITOR TO TREAT […]” (Sanofi, priority 2013, published 2015)
Several values for one entry are separate records, joined by “and”; a condition that tells them apart may be missing. Identical values can stand only once.

What was measured:
[1] = system: patients with primary hypercholesterolemia (heFH and non-FH) who are intolerant to statins; test: Example 3: randomized double-blind trial mAb316P versus ezetimibe (atorvastatin calibrator arm), lipid parameters; format: in vivo, human
Excerpt: The present study was a randomized, double-blind, double-dummy, active-controlled, parallel-group, multi-national, multi-center study in patients with primary hypercholesterolemia and moderate, high, or very high CV risk who are intolerant to statins. The study design is illustrated in FIG. 7.
Primary Efficacy Endpoint: The primary efficacy endpoint was the percent change in calculated LDL-C from baseline to week 24, which was defined as: 100× (calculated LDL-C value at week 24—calculated LDL-C value at baseline)/calculated LDL-C value at baseline. A baseline LDL-C value was needed for each patient as the baseline calculated LDL-C value was the last LDL-C level obtained before the first double-blind study drug injection.
Total-C, HDL-C, TG, ApoB, ApoA-1, and Lp(a) were directly measured by a central laboratory as per a predetermined schedule. Low-density lipoprotein cholesterol was calculated using the Friedewald formula at all visits (except week −15 and the follow-up visit). If TG values exceeded 400 mg/dL (4.52 mmol/L), then the central lab measured (via the beta quantification method) the LDL-C rather than calculate it. Non-HDL-C was calculated by subtracting HDL-C from the total-C. Ratio ApoB/ApoA-1 was calculated.
The double-blind period efficacy endpoint analysis results in the order of statistical hierarchical testing as specified in the above protocol (with multiple testing controlled at the 0.05 significance level) is set forth in Table 12. Primary and key secondary efficacy analyses were performed comparing mAb316P-treated patients to ezetimibe-treated patients. For clarification, the ITT analysis is defined for patients in the ITT population and includes all endpoint assessments in an analysis window, regardless of study treatment dosing status (i.e. includes post-treatment assessments). The on-treatment analysis is defined for patients in the mITT population and includes all endpoint assessments from the first double-blind study drug (capsule or injection, whichever comes first) up to 21 days after the last double-blind study drug injection, or 3 days after the last capsule intake, whichever came first (i.e. includes assessments in the efficacy treatment period). Note: A result is statistically significant if the p-value is s 0.05, in the order of the hierarchical testing.

anti-mAb316P antibodies = test: Example 2: anti-mAb316P antibody (ADA) bridging immunoassay and neutralizing antibody assay; format: in vivo, human
Experimental: Other endpoints Anti-MAb316P Antibody Assessments: Anti-mAb316P antibodies included the antibody status (positive/negative) and antibody titers.
Sampling time: Serum samples for anti-mAb316P antibody determination were drawn periodically throughout the study. The first scheduled sample at randomization visit was obtained before IMP injection (predose).
Anti-mAb316P antibody samples were analyzed using a validated non-quantitative, titer-based bridging immunoassay. It involved an initial screen, a confirmation assay based on drug specificity, and a measurement of the titer of anti-MAb316P antibodies in the sample. The lower limit of detection was approximately 1.5 ng/mL.
Samples that were positive in the ADA assay were assessed for neutralizing antibodies using a validated, non-quantitative, competitive ligand binding assay. The lower limit of detection based on a monoclonal positive control neutralizing antibody is 390 ng/mL.

[2] = system: patients with hypercholesterolemia at moderate cardiovascular (CV) risk; test: Example 2: safety (TEAEs, laboratory parameters, vital signs)
Excerpt: The clinical laboratory data consisted of urinalysis and blood analysis, hematology (RBC count, red blood cell distribution width (RDW), reticulocyte count, hemoglobin, hematocrit, platelets, WBC count with differential blood count), standard chemistry (glucose, sodium, potassium, chloride, bicarbonate, calcium, phosphorous, urea nitrogen, creatinine, uric acid, total protein, LDH, albumin, γ Glutamyl Transferase [γGT]), Hepatitis C antibody, liver panel (ALT, AST, ALP, and total bilirubin), and CPK.
Safety endpoints—Vital signs measurement: Vital signs included: HR, systolic and diastolic BP in sitting position.
The safety analysis included all randomized and treated patients. Safety data were analyzed by descriptive statistics.

[3] = system: patients with primary hypercholesterolemia (heFH and non-FH) who are intolerant to statins; conditions: in vivo
[4] = Week 12, individual patient 6 who reported high blood glucose
[5] = Week 24, individual patients (arbitrary numbers 1-5) who reported high blood glucose

## mAb316P: human anti-PCSK9 antibody; heavy chain SEQ ID NO:5, light chain SEQ ID NO:9; HCVR SEQ ID NO:1, LCVR SEQ ID NO:6
[1]; WK12, ITT analysis
  Apo A-1 Diff mAb316P vs ezetimibe: Diff: 1.6%
  Apo A-1 LS mean percent change from baseline: LS mean: 5.5%
  Apo B Diff mAb316P vs ezetimibe: Diff: −24.5%
  Apo B LS mean percent change from baseline: LS mean: −36.1%
  Fasting Triglycerides Diff mAb316P vs ezetimibe: Diff: 1.3%
  Fasting Triglycerides LS mean percent change from baseline: LS mean: −8.1%
  HDL-C Diff mAb316P vs ezetimibe: Diff: 1.4%
  HDL-C LS mean percent change from baseline: LS mean: 9.0%
  LDL-C Diff mAb316P vs ezetimibe: Diff: −31.5%
  LDL-C LS mean percent change from baseline: LS mean: −47.0%
  Lp(a) Diff mAb316P vs ezetimibe: Diff: −17.2%
  Lp(a) LS mean percent change from baseline: LS mean: −21.7%
  Non-HDL-C Diff mAb316P vs ezetimibe: Diff: −25.7%
  Non-HDL-C LS mean percent change from baseline: LS mean: −25.7%
  Total Cholesterol Diff mAb316P vs ezetimibe: Diff: −21.1%
  Total Cholesterol LS mean percent change from baseline: LS mean: −32.7%
[1]; WK12, on-treatment analysis
  LDL-C Diff mAb316P vs ezetimibe: Diff: −33.1%
  LDL-C LS mean percent change from baseline: LS mean: −51.2%
[1]; WK24, ITT analysis
  Apo A-1 Diff mAb316P vs ezetimibe: Diff: 1.9%
  Apo A-1 LS mean percent change from baseline: LS mean: 4.8%
  Fasting Triglycerides Diff mAb316P vs ezetimibe: Diff: −5.6%
  Fasting Triglycerides LS mean percent change from baseline: LS mean: −9.2%
  HDL-C Diff mAb316P vs ezetimibe: Diff: 0.9%
  HDL-C LS mean percent change from baseline: LS mean: 7.7%
  Proportion with LDL-C <70 mg/dL: Proportion = 32.5%
  Proportion with Very High CV LDL-C <70 mg/dL OR Moderate/High CV LDL-C <100 mg/dL: Proportion = 41.3%
  Total Cholesterol Diff mAb316P vs ezetimibe: Diff: −20.8%
  Total Cholesterol LS mean percent change from baseline: LS mean: −31.8%
[1]; WK24, on-treatment analysis
  Apo B Diff mAb316P vs ezetimibe: Diff: −28.2%
  Apo B LS mean percent change from baseline: LS mean: −42.6%
  LDL-C Diff mAb316P vs ezetimibe: Diff: −35.1%
  LDL-C LS mean percent change from baseline: LS mean: −52.2%
  Non-HDL-C Diff mAb316P vs ezetimibe: Diff: −29.8%
  Non-HDL-C LS mean percent change from baseline: LS mean: −46.9%
  Proportion with LDL-C <70 mg/dL: Proportion = 39.0%
  Proportion with Very High CV LDL-C <70 mg/dL OR Moderate/High CV LDL-C <100 mg/dL: Proportion = 50.4%
[1]; goal <70 mg/dL very high risk, <100 mg/dL moderate and high risk
  patients who reached LDL-C goal at week 24: 41.9%
[1]; in vivo
  LS mean LDL-C value at week 24: 108.5 mg/dL
[1]; week 24
  change in LDL-C level from baseline: -84 mg/dL
anti-mAb316P antibodies; all anti-drug antibody-positive patients
  anti-drug antibody titers: ≤ 240
anti-mAb316P antibodies; in vivo
  neutralizing anti-drug antibody: no neutralizing anti-drug antibody
  patients with treatment emergent anti-drug antibodies: 6 (12%) patients (%)
[2]; Laboratory parameters
  Albumin ≦25 g/L: 0/51
  Aspartate aminotransferase >3× ULN: 0/52
  Creatine kinase >3× ULN: 0/51
  Creatine kinase >10× ULN: 0/51
  Glucose ≦70 mg/dL (3.9 mmol/L) and <LLN: 0/52
[2]; Safety Population
  Patients with any TEAE: 36 (69.2) n (%)
  Patients with any TEAE leading to death: 0 n (%)
  Patients with any TEAE leading to treatment discontinuation: 5 (9.6) n (%)
  Patients with any treatment emergent SAE: 1 (1.9) n (%)
[2]; TEAE
  Arthralgia: 3 (5.8) n (%)
  Diarrhea: 6 (11.5) n (%)
  Dizziness: 1 (1.9) n (%)
  Headaches: 3 (5.8) n (%)
  Influenza: 6 (11.5) n (%)
  Nasopharyngitis: 12 (23.1) n (%)
  Nausea: 3 (5.8) n (%)
  Upper respiratory tract infection: 2 (3.8) n (%)
  Urinary tract infection: 0 n (%)
  back pain: 1 (1.9) n (%)
[2]; TEAEs of interest
  General disorders and administration site conditions: 5 (9.6) n (%)
  Injection site reaction: 1 (1.9) n (%)
  Muscle disorders: 2 (3.8) n (%)
  Musculoskeletal and connective tissue disorders: 8 (15.4) n (%)
  Musculoskeletal and connective tissue disorders NEC: 2 (3.8) n (%)
  Musculoskeletal pain: 1 (1.9) n (%)
  Myalgia: 2 (3.8) n (%)
  muscle spasms: 0 n (%)
[2]; [4]
  Fasting blood glucose: 135 mg/dL
  HbA1c: 6.3%
[2]; [5]
  Fasting blood glucose: 121 mg/dL and 112 mg/dL (2×) and 70 mg/dL and 183 mg/dL
  HbA1c: 6.5% and 5.9% (2×) and 6.2% and 7.7%
[2]; discussion
  Muscle-related AEs: 4%
[2]; disposable autoinjector
  injection related AEs: < 2%
[2]; in vivo
  Muscle-related TEAEs: 2 (4%) patients (%)
  overall percentage of patients who experienced at least one TEAE: 69%
  patients with abnormalities in vital signs (blood pressure, heart rate): no patients
  patients with blood glucose >126 mg/dL (7 mmol/L): 6 patients
[2]; mAb316P 75 mg Q2W
  patients who experienced at least 1 LDL-C value<25 mg/dL: Three
[2]; overall conclusion
  tolerability and safety: tolerability and safety comparable with ezetimibe
[3]
  Cardiac disorders (SOC): 10 (7.9%) patients (%)
  Ear and labyrinth disorders (SOC): 8 (6.3%) patients (%)
  General allergic TEAEs (MedDRA SMQ Hypersensitivity): 12 (9.5%) patients (%)
  Investigations (SOC): 9 (7.1%) patients (%)
  Psychiatric disorders (SOC): 9 (7.1%) patients (%)
  Skeletal muscle-related TEAEs (CMQ preferred term): 34 (27.0%) patients (%)
  TEAEs: 104 (82.5%) patients (%)
  Treatment-emergent SAEs: 12 (9.5%) patients (%)
  Treatment-emergent injection site reactions (ISRs): 6 (4.8%) patients (%)
  Treatment-emergent neurocognitive disorders: 3 (2.4%) patients (%)
  Treatment-emergent neurologic AEs: 11 (8.7%) patients (%)
  Treatment-emergent skeletal muscle-related events resulting in early treatment discontinuation: 19 (15.1%) patients (%)
  back pain: 4.0%
  early termination due to musculoskeletal and connective tissues disorders SOC events: 20 [15.9%] patients [%]
  fatigue: 4.8%
  headache: 4.8%
  insomnia: 5 (4.0%) reports (%)
  muscle spasms: 4.0%
  muscular weakness: 0.8%
  palpitations: 4 (3.2%) reports (%)
  paraesthesia: 3.2%
  patients who prematurely discontinued study treatment due to a TEAE: 23 (18.3%) patients (%)
  patients who prematurely terminated study treatment due to adverse events: 23 (18.3%) patients (%)
  rate of AEs: 82.5%
  vertigo: 6 (4.8%) reports (%)
[3]; sc
  safety and tolerability: generally safe and well tolerated
